Experiment: soluble fraction after stress (log2 fold change); higher = more stays soluble; pooled small domains, quantitative proteomics
Settings: stress: 50 degC
In short: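 Each library was heated to 50°C as a stress step. The libraries, made up of small protein domains, were pooled and analysed at high throughput by quantitative proteomics. The reported value is the base-two logarithm of the fold change in each protein's soluble amount after stress, taken as a measure of aggregation propensity. The higher the value, the more protein stays in solution.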

| Sequence | soluble fraction (log2) |
| --- | --- |
| HMIVVMKTSASERDLQEVIARIEQFGFATRSIVGSERATVSVLGAPLPDSLQEALERMPGVEEVVRITK | -0.344 |
| HMVTVNAFGKSGPEPAAMTKEALAKGADEVRVIVDSPTAAASVRDFLIGAGLRVQLQDDEGQLIVVGEKK | 0.215 |
| HMSLTEESAKSLIGLTENEAVKVAAERGWTVRVAMRDGEAFMLTQDYSENRVNLTVMKTLVTAVTI | -0.273 |
| HMNNVDQLIEQYKTLPGGLLPLLHAIKHALGYIPESTVGSIAKGFNLSRAEVHGVISFYHDFNTQP | 0.0707 |
| HMSNYLKSVEVFDPITNKWSYVSAMKVRRGYVAVVATMDRLYAIGGYDGENYLSTVEMYNPDTN | 0.0631 |
| HMRSPIWKSITATLTAEIAGGQYRAGDKLPTEAELSQRFGVNRHTLRRALAEMAGAGLVVARRGAGVFVQG | -1.94 |
| HMLTPQEIGSRLKLVRQGLQLKQQEVAEIIGTSQLKISKIEQGATVTTPDFLKLLAFYSQSVSLDILF | -0.564 |
| HMREVPHGEYEVKIEKLELVESKAGDPMVTVWFKVLAGDYKGSMIFMNQVITKGFQIHIMNEFLR | -0.256 |
| HMEPEVSNTYEKVLGMHHFSSTRSHQLHDLVRQANALELSLGEIESIAQSAKDGAQVISDIKHWMEPNRQ | 0.266 |
| HMSNLENSLNESLSLLKSNKYNEALEILKKIEIEDSRVFFLLGTIYSVMKNINLGEEFLIKASK | -1.48 |
| HMTGIESVKPSSDFTVEGNRIVAGDAEVEVYDLAGRKVNNNNLTTGVYIAKIAGSAESVKVFV | 0.0109 |
| HMFFDKIIVDFLADGSRIDKYISTLYPDISRTHIQRLIAEQFILVNDSVVKSNYKLSTNDVVLIHIPEA | -3.33 |
| HMKPKDILLPNFTNLTLDEAKAKAEEVKLNLNVSEEKYDVQIEEGKIISQDPKYQPNYTVKEGSTVNVVVS | 0.161 |
| HMQQVLGDVNEDDKVDFLDAIVVLRHDAEIIQLTDNQMKAAEVNKDGKVDFLDAIMILRYDAEIIGS | -0.0952 |
| HMSATQDAAIAVRIRDILSELDGYEDVTVTVTSGIVTMRGTTLDSEKIARLNDLTGRVEGVVAIENSVTET | -0.367 |
| HMDSLELADEVGRVSEALQELRPHQREVLELSLVHGRSHQQISEKTGLALGTVKSHARRGLMRVREMLGV | -0.445 |
| HMETYPINVETTGTNVLLRTGPSTSSNIIKTITDKGTVFLSIERGINSDWQKVVTPDGTIGYMSGKY | 0.000612 |
| HMLTEREQDTLNFIRQYIDEQGRSPLVSEIAKGLGIKSQGTTHRYIQALVDAGLLERHVGRTRGLHLT | 0.0721 |
| HMDKSLDFASIKSVEIATGRKFGWHALKKWSKSNSSEIKTIPDPNFGEVKTYHKDAWLAVYNINLSPILD | -0.404 |

| Sequence | soluble fraction (log2) |
| --- | --- |
| HMSRGTLFVDVRGAVAKPGVYELPEKSRVFQAVEAAGGLLPEALERLVNQAAELTDGQQVYIPFEGEE | 0.296 |
| HMYSSASKEEIDQLMKRLILNLDAKGYFWPQDKEKSLKLYLHNLFSKLPLNSSDIRFLHGLIRALSEE | -1.08 |
| HMEVTENQEKHAYQEAMDQALRFLAPRFLSRAELTRKLLQKEHDRDVIDAVIDRLEELDYVDDAR | 0.0309 |
| HMTNYGTVRPGARGQAVTALQQALIRHGYKLTADGIYGRATRQAVRAFQQKHKLKVDGIVGSKTWALLLAD | -1.04 |
| HMGKKQLVVDLQSIITDVPAALKSYGLEIGQDGKSLIYTYDTKGERTGITTLLNDLQKAGLQMTDMKTQQ | 0.0536 |
| HMAVSNWQKLVSSIQTQLKILALYHGPEDGIYGPNTRSAIMLYEENIGLPVTGEPSRELLAHMLDQTD | -0.869 |
| HMSKQLGFKIKTARRKLNISQGDLSKKLEISPSYLNLIESGKRKVSTDLLMKASEILNLDLKKL | -0.281 |
| HMLKHSKQRDAIEQFLATRYDHPTAETVYMNLREEYPKLSLATVYRNLSLLAELGNIQKIPTGNGPDRFDG | -0.555 |
| HMDNQSIVRINDGDGAWRQRLGEHFGHLPRDRKRGEIVLQVDAADWRWLQTQGYAPRFDAALSAQLQTTL | -0.404 |
| HMTINQIDPASGRKVGYWIITGEMKPKEGFSPDNKIEEGIYVNSRKSGKWIKYWPNGNVRSEIIYKNGR | -0.549 |
| HMGVSLREVPVAEHGDWIGRPIKELGIPAEVLIVLVRRADGTTVVPKGGTVLQQGDMLVVNEWEE | -0.426 |
| HMNTAALSLQRRNEIKKWLLEEKTLTVAALSNRFNVTYETIRRDLEILEKEGFLKKVYGGAALNERV | -0.0358 |
| HMNIEANLEDILRRAMPSAAKLILENSLNINKIIGTGKEGRITKGDVLLYLKDKNLILENILN | -0.173 |
| HMGKKGPELNDNEKIIFNIISKENSMNLDDLKNRTELSNKQWDKAIKGLRSHELVNIEKIDDQLLIHL | 0.196 |
| HMDSILSIVGGEESYKALLAWAENNISQQELQQLETILKSGNVPAIKRVLVTLMNRFNQAQS | -0.147 |
| HMDAKQLQSLKNNNEQLAGFIVRLTNFYEGLSPDIDAELSKLRSHLSGKVDYTLATVSINKINQLFMLEP | -2.6 |
| HMKFSVEEQFKKSFPKNTYETFSETSLKGVYEVYNGKQVYYYLPVNDVLLLGSIVTKDGKNLTQESNSKK | -0.0811 |
| HMSMSKISNLLEIMMIIQYKGLTTASELAQSLGVDKKTVYRYINSLSKANIPIYTKKGRYGGFYIDKNF | -1.19 |

Source: the domain aggregation screens of Martell et al. (2025)
